Results on one substance are retold here after publication PMC4057808, “Molecular characterization of Clonorchis sinensis secretory myoglobin: Delineating its role in anti-oxidative survival” (Parasites & Vectors, 2014).

The test system of this data set is COc1ccccc1O. As to the kind of experiment: purified protein. The following applies: H2O2 (0.2 mM in methods, ~20 μM in table note), 50 mM sodium phosphate pH 7.0, 20 °C, guaiacol varied 0.08-2.5 mM as printed.

A word on the Km: it is the concentration of substrate that gives half-maximal velocity. Turning to “rCsMb (CsMb, Clonorchis sinensis myoglobin) (Clonorchis sinensis)”, the Km is 81 mM.
